test system: K4 kissing-loop RNA reporter; experiment: apparent KD of K4 kissing-loop reporter; higher = weaker reporter binding; settings: Eterna round: R107; input ligand: none
Experimental: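 RNA-MaP round R107: designed RNA switches with theophylline, tryptophan, arginine or FMN aptamers are transcribed on-chip within common flanks. They are titrated with a labelled K4 kissing-loop RNA reporter in RNA-MaP buffer (100 mM Tris pH 7.5, 80 mM KCl, 4 mM MgCl2), without ligand or with the indicated ligand. Median apparent KD per design.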
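Also: bound reporter read as fluorescence of individual clusters on recovered sequencing chips by microscopy, with normalized cluster intensities fitted with a binding model.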

Sequence	apparent KD of K4 kissing-loop reporter [nM]
GCCGUAGAUGGAAGGAGCGUGGUGGACUCGUGAAGUGAUGUUUCAAGUCGUUAUGCCCAACCACAGGUAGGUCGCCAUCUACGGC	270
UGCAGUGAUGUUGCUAUUUGUCUUGAUUAACGAGGACCGGUACGGCCGCCACUCGAUUUCUCUCUAAUCGAGUAUGUUGUUUAGU [#19 K4 Tryptophan A Exclusion]	162
UAAUUGCAGUGAUGUUGCAAAUGUCCUGACUAGGAUAUCAGGAAACUGAGAAGGAGUCCCUUCUAUUGCAACAAGAAGGAGGAUA [KL-SSFMN-A14]	347
AAUAUAAAGCAGUGAUGUUGCUUAUGAGAAGGAGCGCACGAAAGUGCAGGUAGGUCGCUCAGCCAAGUGGACGAAAACGUCCACA [whbob_SS_Arginine_A_sa106]	86.3
GGAUCCACCAGUGAUGUUGGAGAAAACUCAAAGGAUAUGACGAAAGUCAGAAGGUUGUAGACUGGACAAAGUCCGGUCGGAUCCA [FmnA 19 A30+U56]	650
UUGAGCCGGACGUAAGUCCGGCUCUGCGAGCGAGGACCGGUACGGCCGCCACUCGGUGCAGUGAUGUUGCAUGGCCGCAAGGCCG [#2 Exclusion - Tryptophan A Attempt #5 (HarryS)]	235
UGCACGGGCUCGGCCGCCACUCCAGCGGGUCGCAAGGUCCGCUACUGAGUGAUGUUCGGUUGGAGGAGGACCGGGAGCCCGUGCG [#2 Exclusion - Tryptophan B Attempt #31 (HarryS)]	133
AUCUUGUUUGGAGGAUAUUCUUUAUUUGACAUAACCUUCUAUAAGGUGCAGUGAUGUUGCAAUAUAGGAGAAGGUCGAGUGAGAU [Exclusion FMN B GF 18]	188
AGGGUUUAACACGAUACCAGCCUGGAGGCCAGUGAUGUUGGCCGAUUUGAACAGAAUUAAGGCCCUUGGCAGCGUCUUUAAAACC [Biarat]	167
GAGUUUCGUAAAGGAUAUUCUAGCUAAAGCCAUUAGUGAUGUUGAUGUACGGACGGAAGCCUGGCAGAAGAAGGUUAACAGGAUU [theeternabot_sameState_KL_FMN_B_24]	410
AGUGAUGUGGGAAGGAGCGGUAUAAGAAUUCAGUGAUGUUGAAGUGUUGCAGAAAUAAAAGGCCAGGUAGGUCGCCUAGAUGUUA [KL-XARG B29]	454
GGGCAUCUGGCUGAUACCAGUGAUAAAGGGUAAGAGACAGGGAGUGAUGUUCCCUUUAGCCACCCUUGGCAGCAGUUUAAGUUUG [Exclusion Theophylline B GF 17]	94.7
GUCUCAAAAGAGGCAAGCACUCACGAGGACAAGGAUAUCAUAUCAAUGAGAAGGUGUCCUCGUCCUCAGUGAUGUUGAGGAGUGC [Omei KL FMN A SS E v4]	247
AAAAUAAUCCAGUGAUGUUGGUUUCCAGAUACCAGCGACGAAAGUCGCCCUUGGCAGCUGUGGACGUACAAAAUAAGUACGUCCU	359
AGCUCAGAGUGACUCGAUAAGAGUCACAAACGAGGACCGGUACGGCCGCCACUCGAAAUAACGAGAGUGAUGUUCUCGCUGGGCA [FiskerMod 1 - Jieux - Same State Tryptophan A]	1010
AGUUCUUGCCGAAGGAGCGAGGCAGAGUGAUGUUCUGCAGGAGGUCGAAAGACCUCCCUGCCUCAGGUAGGUCGCGGCAUGAACA [Omei KL Arginine B Exc A v1]	1250
UUAUGUUUAGUUCACCCAGUGAUGUUGGAAGGAGCGUGCGAAAGCACAGGUAGGUCGCCAACCUUAAAGUGUCUUGAUUAUCUAA [JR_Nu_ExcArginiA_Sub029]	411
CGCAGUGAUGUUGCUAUUAUUCUUGGUUAACGAGGACCGGUACGGCCGCCACUCGGUUUCUAUCUAAUCCAGUGUUUUUUUGAGU [#24 K4 Tryptophan A Exclusion]	556
ACCAUCAAAGAUGGCCAGGACUCAACUGAUACCAGAGUGAAAACACUCCCUUGGCAGCAGGUGAGUGAUGUUCACGAGUCCUGGA [Omel KL Theo A SS B v7]	215
GUCAGACCGGGACUCCAGUGAUGUUGGAGGCAGGAUAUCCAGUCGAGGAGAAGGGCCAGGGAUAUCGAGCUGCUCGGUUUGUAGU [Xexezaes]	77.3
CCUGAUCCUAGUGAUGUUAGGUCCAACGGCCGAGGACCGGUACGGCCGCCACUCGUCAAUUGGAAACAGCCCACGGGCACCGGGU [theeternabot_sameState_KL_Trp_A_19]	906
AUUUUAUUAACUGAUACCAGACUUAAUGAAUUGUAAAUUACUAGUGAUGUUAGUGAUUCUGUCCCUUGGCAGCAGUAUUUAUUAA [JR_ExcTheophyB_Sub012]	139

same assay, conditions: Eterna round: R107; input ligand: theophylline 20 uM

Sequence	apparent KD of K4 kissing-loop reporter [nM]
UAGUGAUGCUAUGUUAGGUUUUUUAGGGAAGGAGCGCCAAAGAAGGCAGGUAGGUCGCCCUAUAUUCCCAGUGAUGUUGGGUAUU [Skye_Ex_AA]	93.6
AUUUUUUUGUCAGGAUAUUAGUGUGCGUUUGGUUUGUUAGUGAUGUUGAUAUUUUGUUUAUGUAUUUAAGAAGGGAUUUAGCGGU [aaeatemullin]	504
GGAUUCACCAGUGAUGUUGGAGAAAACUCGAAGGAUAUGACGAAAGUCAGAAGGUCGUAGACUGGACAAAGUCCGGUCGGAUCCA [KL-SSFMN-A22]	359
CGAAGAGAGUGAUGUUCUCUAGGCAAAAGAAAGGAUAUAAUGUUUGUUAGAAGGUUCGGAAAAUGGAACGUCGGCCCGUACAACC [theeternabot_exclusion_KL_FMN_A_18]	127
CUUCGAUUAACAGAUACCAGUCACUUUGGAGCCACACACAAGUGAGUGAUGUUCACUUGUGACCCUUGGCAGCUGUUAGUCGAAG [Theo B Ex t1]	87.6

Source: the supplement of paper PMC9170038
